The target of assay [1] is T1, gD epitope-tagged cynomolgus monkey mesothelin expressed on cells (construct #383) (cynomolgus monkey).
T1 construct: also called cyno mesothelin
T1 chain: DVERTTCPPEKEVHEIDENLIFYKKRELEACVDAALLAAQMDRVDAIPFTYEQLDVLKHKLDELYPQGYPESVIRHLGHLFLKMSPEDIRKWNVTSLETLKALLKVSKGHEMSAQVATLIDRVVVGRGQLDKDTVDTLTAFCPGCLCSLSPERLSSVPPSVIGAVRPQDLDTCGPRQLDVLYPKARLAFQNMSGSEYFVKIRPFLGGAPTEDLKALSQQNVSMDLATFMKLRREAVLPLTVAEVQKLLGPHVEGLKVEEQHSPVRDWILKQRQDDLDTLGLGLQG
Nature of the assay: immunoprecipitation from BJAB cells stably expressing gD-tagged cyno mesothelin, Western blot with murine anti-gD. Background: Immunoblotting shows a protein as a band on a membrane.

The target in assay [2] is T2, human mesothelin on cells (endogenous on tumour cell lines and tissue, or stably expressed on A431 or HT1080 … (human, UniProt Q13421 296-580)).
T2 construct: also called endogenous mesothelin; endogenous human mesothelin
T2 sequence (Q13421 other isoform, or with tags, fused parts or gaps): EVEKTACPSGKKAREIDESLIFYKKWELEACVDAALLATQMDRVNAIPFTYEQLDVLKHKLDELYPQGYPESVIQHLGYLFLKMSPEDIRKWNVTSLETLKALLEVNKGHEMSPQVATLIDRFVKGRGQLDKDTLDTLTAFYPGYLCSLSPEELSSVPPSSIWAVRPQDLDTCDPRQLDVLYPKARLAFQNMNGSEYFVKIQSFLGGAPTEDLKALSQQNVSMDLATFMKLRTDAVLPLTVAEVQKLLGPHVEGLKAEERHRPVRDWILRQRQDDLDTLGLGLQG
Put plainly: Scatchard analysis (125I-labelled antibody) on AsPC1 cells, endogenous mesothelin. As for the experimental part: (§1) The data was analyzed with non-linear regression curve fitting in the New Ligand program (Genentech, Inc., South San Francisco, Calif.) to estimate Kd values (Munson et al., Anal. Biochem., 107 220-239 (1980)).

The target of assay [3] is T3, C-terminally his-tagged human mesothelin expressed in CHO cells (Mono S fractions A11, A12, B1, B5) (human, UniProt Q13421 296-580).
T3 construct: also called glycosylated mesothelin; not shown: C-terminal his tag
T3 sequence (Q13421 other isoform, or with tags, fused parts or gaps limits assumed): as the sequence (Q13421 other isoform, or with tags, fused parts or gaps) above
Nature of the assay: SPR: each Mono S fraction (A11, A12, B1, B5) flowed over a chip with prebound h7D9.v3. The source says:
To determine whether h7D9.v3 binds to glycosylated mesothelin, C-terminally his-tagged human mesothelin was expressed in CHO cells, purified and further separated according to charge on a Mono S column into fractions with high (fraction A11), medium (A12), low (B1) and low-to-none (B5) glycosylation of mesothelin, as shown by Coomassie Blue staining on an SDS-PAGE gel. (FIG. 20, top left). […] (FIG. 20, right).
In general terms: SPR reads the build-up and loss of mass on a sensor chip optically.

Assay [4] addresses T4, gD epitope-tagged human mesothelin expressed on cells (construct #387) (human, UniProt Q13421 296-580).
T4 construct: also called gD-human mesothelin; gD-tagged human mesothelin
Nature of the assay: Scatchard, 125I-labelled antibody on stably transfected 293 cells. The method, then:
as §1

The target of assay [5] is T2, human mesothelin on cells (endogenous …). Put plainly: Scatchard analysis (125I-labelled antibody) on HPAF-II cells, endogenous mesothelin. The method, then: as §1
The target is the same in assay [6]. Put plainly: Scatchard analysis (125I-labelled antibody) on OvCar3x2.1 cells, endogenous mesothelin. As for the experimental part:
as §1

Assay [7] shares this target. Put plainly: Scatchard; range for endogenous mesothelin in four pancreatic and two ovarian cell lines. The method, then: as §1
For assay [8], the target named is T4, gD epitope-tagged human mesothelin …. Nature of the assay: Scatchard, 125I-labelled antibody on stably transfected HT1080 cells. The method, then:
as §1

Assay [9] has as its target T2, human mesothelin on cells (endogenous …). Put plainly: Scatchard analysis (125I-labelled antibody) on HPAC cells, endogenous mesothelin. As for the experimental part:
as §1

The target in assay [10] is T4, gD epitope-tagged human mesothelin …. Nature of the assay: Scatchard, 125I-labelled antibody on stably transfected BJAB cells. As for the experimental part: as §1
For assay [11], the target named is T5, E. coli derived recombinant human mesothelin (human, UniProt Q13421 296-580).
T5 construct: not shown: N-terminal unizyme His (HQ)-tag
T5 sequence (Q13421 other isoform, or with tags, fused parts or gaps): as above
Nature of the assay: Biacore-2000, IgG over immobilised E. coli derived human mesothelin, 1:1 fit. As for the experimental part: 7D9 variants were expressed as IgG by CHO transient transfection. IgG was purified with protein G affinity chromatography. The affinity of each 7D9 IgG variant for human mesothelin was determined by surface plasmon resonance using a BIACORE™-2000. BIACORE™ research grade CM5 chips were immobilized with approximately 110 RU of E. coli derived recombinant human mesothelin using the amine coupling kit from BIACORE™. […] Each sample was analyzed with 5-minute association and 3.5-minute dissociation. After each injection the chip was regenerated using 10 mM Glycine pH 1.7. Binding response was corrected by subtracting the RU from a flow cell with an irrelevant IgG immobilized at similar density. A 1:1 Languir model of simultaneous fitting of kₒₙ and koff was used for kinetics analysis.

In assay [12] the target is T6, gD epitope-tagged mouse mesothelin expressed on cells (construct #385) (mouse, UniProt Q61468 298-582).
T6 sequence: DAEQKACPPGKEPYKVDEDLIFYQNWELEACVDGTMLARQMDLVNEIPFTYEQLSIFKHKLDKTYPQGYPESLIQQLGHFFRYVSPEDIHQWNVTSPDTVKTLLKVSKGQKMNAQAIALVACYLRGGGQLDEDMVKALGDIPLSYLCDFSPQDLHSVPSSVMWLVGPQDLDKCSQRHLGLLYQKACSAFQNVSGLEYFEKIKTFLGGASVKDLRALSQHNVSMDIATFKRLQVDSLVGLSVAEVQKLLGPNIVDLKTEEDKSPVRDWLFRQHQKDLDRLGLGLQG
Put plainly: FACS on stably transfected 293 cells. The method, then:
Monoclonal antibodies were tested to determine if they cross-react with mesothelin from species other than human. […] Shaded residues are identical between at least two species. Unshaded residues differ between at least two of the four species. […] Anti-gD staining verified that mouse mesothelin was indeed expressed.

Assay [13] addresses T2, human mesothelin on cells (endogenous …). Nature of the assay: Scatchard analysis (125I-labelled antibody) on Capan2 cells, endogenous mesothelin. As for the experimental part:
as §1

For assay [14] the target is unchanged. Put plainly: Scatchard analysis (125I-labelled antibody) on OvCar3 cells, endogenous mesothelin. As for the experimental part:
as §1

Assay [15] addresses T7, gD epitope-tagged rat mesothelin expressed on cells (rat, UniProt Q9ERA7 298-582).
T7 sequence: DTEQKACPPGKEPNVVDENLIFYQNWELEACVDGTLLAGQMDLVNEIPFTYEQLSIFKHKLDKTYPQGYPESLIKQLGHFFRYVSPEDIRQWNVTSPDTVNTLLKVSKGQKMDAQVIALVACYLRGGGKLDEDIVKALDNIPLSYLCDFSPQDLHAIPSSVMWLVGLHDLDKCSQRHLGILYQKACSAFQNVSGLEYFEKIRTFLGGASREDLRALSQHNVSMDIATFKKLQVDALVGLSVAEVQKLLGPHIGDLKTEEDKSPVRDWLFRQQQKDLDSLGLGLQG
Put plainly: immunoprecipitation from BJAB cells stably expressing gD-tagged rat mesothelin, Western blot with murine anti-gD.

Assay [16] addresses T5, E. coli derived recombinant human …. Put plainly: Biacore (column 'Kd (nM) Biacore'); antigen preparation not given, the filing's Biacore assays use E. coli derived human mesothelin.
Assay [17] has as its target T6, gD epitope-tagged mouse mesothelin …. Nature of the assay: FACS on transiently transfected 293 cells.
Assay [18] has as its target T1, gD epitope-tagged cynomolgus monkey …. Nature of the assay: FACS on transiently transfected 293 cells.

T4 sequence (Q13421 other isoform, or with tags, fused parts or gaps): as the sequence (Q13421 other isoform, or with tags, fused parts or gaps) above

B1: humanized monoclonal antibody 7D9.v3 (antibody, V domains shown)
VH: EVQLVESGGGLVQPGGSLRLSCAASGYTFTTYWMHWVRQAPGKGLEWVGYIRPSTGYTEYNQKFKDRFTISADTSKNTAYLQMNSLRAEDTAVYYCARSRWLLDYWGQGTLVTVS
VL: DIQMTQSPSSLSASVGDRVTITCKSSQSVLYSSNQKNYLAWFQQKPGKAPKLLIYWASTRESGVPSRFSGSGSGTDFTLTISSLQPEDFATYFCHQYLSSYTFGQGTKVEIKR
notes: also called h7D9.v3; hu7D9.v3
Usually Kd stands for a measure of binding affinity in units of concentration. In the case of B1, the binding result in assay [1] is listed as “no binding”; in assay [12], “no binding (tested: 10 µg/ml)”; in assay [15], “no binding”. Besides, the Kd in assay [2] is 0.58 nM; in assay [3] it was 1.5 nM; in assay [4], 0.2 nM; in assay [5], 0.41 nM; in assay [6], 0.56 nM; in assay [7] it was 0.41 to 1 nM. Further, the Kd in [8] worked out at 0.97 nM; in assay [9], 1 nM; in [10], 0.25 nM; in assay [11], 1.9 nM; in assay [13] it was 0.63 nM; in [14] it was 0.53 nM.

B2: mouse monoclonal antibody 7D9 (antibody, V domains shown)
VH: QVQLQQSGAELAKPGASVKMSCKASGYTFTTYWMHWVKQRPGQGLEWIGYIRPSTGYTEYNQKFKDKATLTADKSSSTAYMQLSSLTSEDSTVYYCARSRWLLDYWGQGTSLTVS
VL: DIMMTQSPSSLAVSAGEKVTMSCKSSQSVLYSSNQKNYLAWFQQKPGQSPKLLIYWASTRESGVPDRFTGSGSGTDFTLTISSVQAEDLAVYFCHQYLSSYTFGGGTKVEIK
notes: also called m7D9; mu7D9
B2: the Kd in assay [16] stood at 0.23 nM. Further, the binding result in [17] and in assay [18] was “no binding (tested: 0.02 µg/ml)” throughout.

Values taken from patent US20170281792A1 (Genentech, published 2017).
